Several values for one entry are separate records, joined by “and”; a condition that tells them apart may be missing. Identical values can stand only once.
Columns and labels:
SC-K^d -15 [1] = molecular target: T1, SC-K^d -15 (Mus musculus, UniProt P01887+P01902); experiment: Direct peptide binding assay: 35S-labeled SC-Kd-15 on plastic-coated peptides; conditions: for ^35 S-labeled SC-Kd bound to coated peptide: duplicates; for binding of peptide to SC-K^d -15 (in words): direct assay
T1 construct: connecting residue 276 of K^d heavy chain to the first residue of β2 -microglobulin; mature mouse beta2-microglobulin, fused after the spacer (same polypeptide); expressed in transfected cells; host or cells: monkey COS-1 cells, transient
T1 sequence (P01902+P01887 with tags, fused parts or gaps): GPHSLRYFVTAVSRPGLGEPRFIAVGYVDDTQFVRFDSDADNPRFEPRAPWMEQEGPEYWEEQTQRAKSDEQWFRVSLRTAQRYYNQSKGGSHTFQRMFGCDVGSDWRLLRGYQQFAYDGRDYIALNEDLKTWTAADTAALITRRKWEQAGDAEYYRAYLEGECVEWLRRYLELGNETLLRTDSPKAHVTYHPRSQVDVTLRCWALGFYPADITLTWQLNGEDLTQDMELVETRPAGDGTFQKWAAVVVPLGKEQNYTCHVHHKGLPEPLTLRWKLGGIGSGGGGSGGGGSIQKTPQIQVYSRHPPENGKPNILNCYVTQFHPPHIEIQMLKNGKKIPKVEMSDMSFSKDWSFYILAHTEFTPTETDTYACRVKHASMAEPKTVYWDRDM
Experimental: (§1) Direct Peptide Binding Assay. Wells of microtiter plates are pretreated with 100 μl 2.5% glutaraldehyde in distilled water for 2 h at 20° C., washed with distilled water, […] buffer, pH 9.6, or in PBS, pH 7.4 or pH 5.0. Remaining free sites are blocked by incubation for 2 h at 20° C. with BSA diluted 1% in PBS containing 0.05% Tween 20 (Tw) and 0.02% sodium azoture. […] After extensive washing, the radioactivity of each well is counted.
COS-1 cells (usually 10^7 cells) were transfected with pSC-K^d -15 DNA, labeled and lysed as above. […] After the final wash in PBS, SC-K^d -15 was eluted from the matrix with an equal volume of 3 M thiocyanate for 10 min on ice. After an overnight dialysis in PBS containing 0.1% NP40, 0.05% Tween and 0.2% BSA, SC-K^d -15 was used in direct binding test as below. Its purity was assessed by SDS-PAGE.
K^d molecules isolated from the spleen of BALB/c mice were then purified and iodinated.

HLA-DR3 = HLA-DR3 (Homo sapiens, UniProt P01903+P01911); experiment: Direct peptide binding assay: 125I-labeled HLA-DR3 (positive control); conditions: for binding of peptide to HLA-DR3 positive control (in words): direct assay
Chain of HLA-DR3 (P01903 26-254): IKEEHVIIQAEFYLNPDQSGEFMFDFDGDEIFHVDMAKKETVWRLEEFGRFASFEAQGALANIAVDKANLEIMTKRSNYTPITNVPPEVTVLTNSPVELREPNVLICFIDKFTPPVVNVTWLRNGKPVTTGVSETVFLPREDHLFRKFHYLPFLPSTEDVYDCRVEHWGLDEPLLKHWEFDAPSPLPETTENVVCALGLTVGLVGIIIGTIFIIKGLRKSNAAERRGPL
Chain of HLA-DR3 (P01911 30-266): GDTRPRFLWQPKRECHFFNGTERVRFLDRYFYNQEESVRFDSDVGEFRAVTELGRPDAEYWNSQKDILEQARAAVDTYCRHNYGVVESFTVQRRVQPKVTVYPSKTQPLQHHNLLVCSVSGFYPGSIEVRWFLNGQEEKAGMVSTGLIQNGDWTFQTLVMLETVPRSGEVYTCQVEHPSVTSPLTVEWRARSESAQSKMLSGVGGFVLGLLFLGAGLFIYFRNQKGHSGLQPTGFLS
Experimental: as §1

HLA-DRw13 = HLA-DRw13 (Homo sapiens, UniProt P01903+P01911); experiment: Direct peptide binding assay: 125I-labeled HLA-DRw13 (positive control); conditions: for binding of peptide to DRw13 positive control (in words): direct assay, printed DR213
Chain of HLA-DRw13 (P01903 26-254): as the sequence (P01903 26-254) above
Chain of HLA-DRw13 (P01911 30-266): as the sequence (P01911 30-266) above
Experimental: Direct Peptide Binding Assay. Wells of microtiter plates are pretreated with 100 μl 2.5% glutaraldehyde in distilled water for 2 h at 20° C., washed with distilled water, and coated for 16 h at 4° C. with 100 μl of peptide diluted at 5 μg/ml either in carbonate-bicarbonate buffer, pH 9.6, or in PBS, pH 7.4 or pH 5.0. Remaining free sites are blocked by incubation for 2 h at 20° C. with BSA diluted 1% in PBS containing 0.05% Tween 20 (Tw) and 0.02% sodium azoture. […] After extensive washing, the radioactivity of each well is counted.

H-2K = molecular target: T2, H-2K (Mus musculus, UniProt P01902); experiment: Direct peptide binding assay: 125I-labeled conventional Kd from BALB/c spleen
T2 construct: K^d molecules isolated from the spleen of BALB/c mice were then purified and iodinated; from tissue; host or cells: spleen of BALB/c mice
T2 sequence (P01902 22-368): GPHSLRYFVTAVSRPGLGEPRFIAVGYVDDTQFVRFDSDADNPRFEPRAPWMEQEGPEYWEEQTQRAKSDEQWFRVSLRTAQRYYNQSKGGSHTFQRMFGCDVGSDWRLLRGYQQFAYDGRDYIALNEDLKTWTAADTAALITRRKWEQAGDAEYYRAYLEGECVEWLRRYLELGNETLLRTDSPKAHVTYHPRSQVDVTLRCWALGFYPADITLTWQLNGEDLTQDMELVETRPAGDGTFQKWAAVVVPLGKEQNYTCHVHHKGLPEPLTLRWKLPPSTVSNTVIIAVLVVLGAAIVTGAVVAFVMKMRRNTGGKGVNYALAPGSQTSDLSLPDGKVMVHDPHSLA
T2 sequence (P01887 21-119 partner): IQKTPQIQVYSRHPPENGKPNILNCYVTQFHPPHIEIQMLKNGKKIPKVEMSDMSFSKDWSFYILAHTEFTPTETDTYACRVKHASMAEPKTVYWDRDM
Experimental: Direct Peptide Binding Assay. Wells of microtiter plates are pretreated with 100 μl 2.5% glutaraldehyde in distilled water for 2 h at 20° C., washed with distilled water, and coated for 16 h at 4° C. with 100 μl of peptide diluted at 5 μg/ml either in carbonate-bicarbonate buffer, pH 9.6, or in PBS, pH 7.4 or pH 5.0. Remaining free sites are blocked by incubation for 2 h at 20° C. with BSA diluted 1% in PBS containing 0.05% Tween 20 (Tw) and 0.02% sodium azoture. After washing, purified ^125 I-HLA molecules (100 μl containing 1.5×10^5 cpm, 10^-9 M) diluted in PBS containing 1% BSA, 0.05% Tw, 0.02% sodium azoture, 1 mM PMSF, and 10 μg/ml trypsin inhibitor are added and incubated for 20 h at 20° C. After extensive washing, the radioactivity of each well is counted.
Peptides used in this study are described in Choppin et al. (Choppin, J., Martinon, F., Gomard, E., Bahraoui, E., Connan, F., Bouillot, F., and Levy, J. -P, J. Exp. Med., 1990. 172:889 and references therein), except for HLA-Cw3 and HLA-A24 described in Maryanski, J. Ll, Pala, P., Cerottini, J. -C, and Corradin, G., J. Exp. Med. 1988. 167:1391. Binding assays were performed as described in Choppin, J., Martinon, F., Gomard, E., Bahraoui, E., Connan, F., Bouillot, F., and Levy, J. -P, J. Exp. Med., 1990. 172:889. […]

SC-K^d -15 [2] = molecular target: T1, SC-K^d -15; experiment: Competition experiment, env 312-327 bound to plastic, 35S-labeled SC-Kd; type: binding; conditions: Table (B) shows it for SC-Kd and H-2K

| Sequence | ^35 S-labeled SC-Kd bound to coated peptide (SC-K^d -15 [1]; Table 10 (A), peptide 30 μg/ml, pH 9.6, input 10,000 cpm) [cpm] | ^35 S-labeled SC-Kd bound to coated peptide (SC-K^d -15 [1]; Table (B), peptide 5 μg/ml, pH 9.6, input 6000 cpm, no coated peptide 228/223) [cpm] | binding of peptide to SC-K^d -15 (in words) (SC-K^d -15 [1]) | binding of peptide to HLA-DR3 positive control (in words) (HLA-DR3) | binding of peptide to DRw13 positive control (in words) (HLA-DRw13) | binding of peptide to conventional K^d (in words) (H-2K) | ^35 S-labeled SC-Kd bound to coated peptide (SC-K^d -15 [1]; Table 10 (A), peptide 10 μg/ml, pH 5, input 10,000 cpm) | ^125 I-labeled HLA-DR3 bound to coated peptide (HLA-DR3; Table 10 (A), peptide 10 μg/ml, pH 5, input 200000 cpm, first value of cell, duplicates) | ^125 I-labeled HLA-DRw13 bound to coated peptide (HLA-DRw13; Table 10 (A), peptide 10 μg/ml, pH 5, input 200000 cpm, second value of cell, duplicates) | competition with plastic-bound env 312-327 peptide (in words) (SC-K^d -15 [2]) |
| --- | --- | --- | --- | --- | --- | --- | --- | --- | --- | --- |
| IRIQRGPGRAFVTIGK [env 312-327, HIV 1 Env peptide, residues 312-327] | 750 | 390 | significant binding | significant binding | significant binding | found to bind |  |  |  |  |
| LFIHFRIGCRHSR [vpr 68-80] |  |  | significant binding | significant binding | significant binding |  | 710 cpm and 621 cpm | 18582 cpm and 18245 cpm | 21838 cpm and 20593 cpm | competed efficiently |
